In publication doi:10.1101/854158 (bioRxiv, 2019):

T1: FANCA (human, UniProt O15360 1-1455)
T1 sequence: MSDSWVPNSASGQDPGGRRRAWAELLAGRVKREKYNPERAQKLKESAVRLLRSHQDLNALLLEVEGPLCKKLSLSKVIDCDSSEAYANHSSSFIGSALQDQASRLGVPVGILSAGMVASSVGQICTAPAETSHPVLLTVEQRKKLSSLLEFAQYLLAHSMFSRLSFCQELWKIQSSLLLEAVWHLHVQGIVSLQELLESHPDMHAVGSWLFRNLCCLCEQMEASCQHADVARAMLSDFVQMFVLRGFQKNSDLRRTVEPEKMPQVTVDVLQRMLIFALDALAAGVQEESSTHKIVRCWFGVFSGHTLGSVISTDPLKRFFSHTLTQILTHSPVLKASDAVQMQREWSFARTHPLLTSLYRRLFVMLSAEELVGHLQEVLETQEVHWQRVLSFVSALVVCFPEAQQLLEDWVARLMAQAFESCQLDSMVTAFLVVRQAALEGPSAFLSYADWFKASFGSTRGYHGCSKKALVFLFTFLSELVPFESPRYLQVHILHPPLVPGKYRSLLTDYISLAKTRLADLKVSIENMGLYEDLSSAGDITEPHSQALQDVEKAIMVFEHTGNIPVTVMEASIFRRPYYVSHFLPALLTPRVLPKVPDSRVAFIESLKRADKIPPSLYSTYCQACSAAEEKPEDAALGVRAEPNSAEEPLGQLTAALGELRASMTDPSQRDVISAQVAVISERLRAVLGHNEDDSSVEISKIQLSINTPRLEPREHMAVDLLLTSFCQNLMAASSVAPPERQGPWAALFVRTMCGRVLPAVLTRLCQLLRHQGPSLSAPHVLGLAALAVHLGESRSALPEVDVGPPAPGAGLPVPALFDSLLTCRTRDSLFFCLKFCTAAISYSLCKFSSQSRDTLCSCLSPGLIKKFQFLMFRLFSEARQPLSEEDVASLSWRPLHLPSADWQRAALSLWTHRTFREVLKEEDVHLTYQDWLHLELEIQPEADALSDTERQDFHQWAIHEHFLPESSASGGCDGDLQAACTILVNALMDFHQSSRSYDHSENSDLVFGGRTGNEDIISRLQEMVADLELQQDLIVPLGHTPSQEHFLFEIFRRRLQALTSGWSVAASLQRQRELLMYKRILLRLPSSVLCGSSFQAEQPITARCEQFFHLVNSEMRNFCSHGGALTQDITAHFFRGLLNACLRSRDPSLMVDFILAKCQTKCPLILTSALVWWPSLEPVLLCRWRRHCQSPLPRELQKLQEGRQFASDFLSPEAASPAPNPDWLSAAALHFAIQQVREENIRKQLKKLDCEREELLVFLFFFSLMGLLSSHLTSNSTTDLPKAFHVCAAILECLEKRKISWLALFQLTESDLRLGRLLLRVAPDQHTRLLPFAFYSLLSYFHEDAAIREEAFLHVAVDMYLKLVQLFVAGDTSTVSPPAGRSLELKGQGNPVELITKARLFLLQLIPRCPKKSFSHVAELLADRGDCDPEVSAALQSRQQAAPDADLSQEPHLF

T2: FANCB (human, UniProt Q8NB91 1-859)
T2 sequence: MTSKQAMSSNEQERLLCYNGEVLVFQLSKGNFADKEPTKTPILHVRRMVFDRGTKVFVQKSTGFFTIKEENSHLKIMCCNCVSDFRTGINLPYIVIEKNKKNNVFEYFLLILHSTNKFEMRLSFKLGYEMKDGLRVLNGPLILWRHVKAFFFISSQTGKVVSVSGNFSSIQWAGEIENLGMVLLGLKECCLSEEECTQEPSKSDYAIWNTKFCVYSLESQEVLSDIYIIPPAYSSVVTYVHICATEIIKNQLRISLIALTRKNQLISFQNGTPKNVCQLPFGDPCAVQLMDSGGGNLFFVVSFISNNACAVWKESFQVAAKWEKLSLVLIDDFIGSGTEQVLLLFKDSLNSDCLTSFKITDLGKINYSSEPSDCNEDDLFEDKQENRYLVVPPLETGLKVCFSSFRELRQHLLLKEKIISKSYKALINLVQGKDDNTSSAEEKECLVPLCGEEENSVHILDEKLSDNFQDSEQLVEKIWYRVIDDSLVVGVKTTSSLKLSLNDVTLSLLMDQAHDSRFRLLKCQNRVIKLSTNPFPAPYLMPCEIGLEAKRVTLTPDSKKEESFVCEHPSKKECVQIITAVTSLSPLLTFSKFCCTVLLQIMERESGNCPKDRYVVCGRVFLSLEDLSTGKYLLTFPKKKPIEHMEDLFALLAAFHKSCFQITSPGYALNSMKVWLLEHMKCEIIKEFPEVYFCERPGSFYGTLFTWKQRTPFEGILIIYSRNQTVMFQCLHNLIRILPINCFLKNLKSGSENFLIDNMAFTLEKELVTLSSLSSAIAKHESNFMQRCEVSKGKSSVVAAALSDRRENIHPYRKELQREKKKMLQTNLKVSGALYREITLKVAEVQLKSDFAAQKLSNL

T3: FAAP100 (human, UniProt Q0VG06 1-881)
T3 sequence: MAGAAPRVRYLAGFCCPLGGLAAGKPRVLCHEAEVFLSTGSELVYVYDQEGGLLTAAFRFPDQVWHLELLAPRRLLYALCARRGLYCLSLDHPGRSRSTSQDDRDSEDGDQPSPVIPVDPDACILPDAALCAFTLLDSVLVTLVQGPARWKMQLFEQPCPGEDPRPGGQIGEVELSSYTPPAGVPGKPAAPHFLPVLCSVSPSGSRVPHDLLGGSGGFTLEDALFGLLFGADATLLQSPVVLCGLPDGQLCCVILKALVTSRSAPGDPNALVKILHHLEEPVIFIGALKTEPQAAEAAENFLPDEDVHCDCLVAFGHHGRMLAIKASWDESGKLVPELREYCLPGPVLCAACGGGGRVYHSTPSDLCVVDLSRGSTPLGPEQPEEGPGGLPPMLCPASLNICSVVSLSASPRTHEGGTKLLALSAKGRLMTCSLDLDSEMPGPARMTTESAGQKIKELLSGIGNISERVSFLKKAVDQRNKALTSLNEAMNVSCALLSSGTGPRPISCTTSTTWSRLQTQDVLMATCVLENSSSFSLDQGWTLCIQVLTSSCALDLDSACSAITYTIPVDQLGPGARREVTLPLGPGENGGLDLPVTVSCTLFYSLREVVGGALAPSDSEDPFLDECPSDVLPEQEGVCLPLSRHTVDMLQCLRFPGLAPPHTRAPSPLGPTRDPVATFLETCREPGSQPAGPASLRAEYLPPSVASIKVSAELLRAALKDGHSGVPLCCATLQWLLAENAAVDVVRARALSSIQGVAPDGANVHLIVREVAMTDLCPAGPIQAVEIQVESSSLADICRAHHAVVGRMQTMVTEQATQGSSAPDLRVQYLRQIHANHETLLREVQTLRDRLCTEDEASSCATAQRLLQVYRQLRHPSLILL

T4: FANCC (human, UniProt Q00597 1-558)
T4 sequence: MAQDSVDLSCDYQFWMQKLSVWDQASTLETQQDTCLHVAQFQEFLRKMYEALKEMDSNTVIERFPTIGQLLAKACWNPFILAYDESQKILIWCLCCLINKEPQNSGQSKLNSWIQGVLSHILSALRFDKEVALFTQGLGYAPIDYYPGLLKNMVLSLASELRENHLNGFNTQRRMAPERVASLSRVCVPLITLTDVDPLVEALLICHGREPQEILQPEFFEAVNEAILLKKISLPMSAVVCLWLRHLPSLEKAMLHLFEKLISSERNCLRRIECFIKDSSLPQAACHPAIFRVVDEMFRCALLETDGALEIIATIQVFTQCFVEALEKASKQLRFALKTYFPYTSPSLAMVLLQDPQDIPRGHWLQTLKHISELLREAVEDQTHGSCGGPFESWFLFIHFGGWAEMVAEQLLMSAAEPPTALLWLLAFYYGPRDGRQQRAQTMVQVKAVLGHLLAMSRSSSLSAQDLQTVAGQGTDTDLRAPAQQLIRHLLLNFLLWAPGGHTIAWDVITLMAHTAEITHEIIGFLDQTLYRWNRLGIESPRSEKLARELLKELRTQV

B1: FANCG (natural protein)
chain: MSRQTTSVGSSCLDLWREKNDRLVRQAKVAQNSGLTLRRQQLAQDALEGLRGLLHSLQGLPAAVPVLPLELTVTCNFIILRASLAQGFTEDQAQDIQRSLERVLETQEQQGPRLEQGLRELWDSVLRASCLLPELLSALHRLVGLQAALWLSADRLGDLALLLETLNGSQSGASKDLLLLLKTWSPPAEELDAPLTLQDAQGLKDVLLTAFAYRQGLQELITGNPDKALSSLHEAASGLCPRPVLVQVYTALGSCHRKMGNPQRALLYLVAALKEGSAWGPPLLEASRLYQQLGDTTAELESLELLVEALNVPCSSKAPQFLIEVELLLPPPDLASPLHCGTQSQTKHILASRCLQTGRAGDAAEHYLDLLALLLDSSEPRFSPPPSPPGPCMPEVFLEAAVALIQAGRAQDALTLCEELLSRTSSLLPKMSRLWEDARKGTKELPYCPLWVSATHLLQGQAWVQLGAQKVAISEFSRCLELLFRATPEEKEQGAAFNCEQGCKSDAALQQLRAAALISRGLEWVASGQDTKALQDFLLSVQMCPGNRDTYFHLLQTLKRLDRRDEATALWWRLEAQTKGSHEDALWSLPLYLESYLSWIRPSDRDAFLEEFRTSLPKSCDL
B2: FANCF (natural protein)
chain: MESLLQHLDRFSELLAVSSTTYVSTWDPATVRRALQWARYLRHIHRRFGRHGPIRTALERRLHNQWRQEGGFGRGPVPGLANFQALGHCDVLLSLRLLENRALGDAARYHLVQQLFPGPGVRDADEETLQESLARLARRRSAVHMLRFNGYRENPNLQEDSLMKTQAELLLERLQEVGKAEAERPARFLSSLWERLPQNNFLKVIAVALLQPPLSRRPQEELEPGIHKSPGEGSQVLVHWLLGNSEVFAAFCRALPAGLLTLVTSRHPALSPVYLGLLTDWGQRLHYDLQKGIWVGTESQDVPWEELHNRFQSLCQAPPPLKDKVLTALETCKAQDGDFEVPGLSIWTDLLLALRSGAFRKRQVLGLSAGLSSV

Assays:
Assay in all cases: cryo-EM structure
FANCA = target: T1, FANCA
FANCB = target: T2, FANCB
FAAP100 = target: T3, FAAP100
FANCG = target: B1
FANCC = target: T4, FANCC

Binder | binding result (FANCA) | binding result (FANCB) | binding result (FAAP100) | binding result (FANCG) | binding result (FANCC)
B1 | binds | binds | binds | – | –
B2 | – | – | – | binds | binds
